Test results: article PMC5727443

Target: hypoxia-inducible factor 2α (HIF-2α), wild type (UniProt Q99814)
Test: co-IP

UniProt Q99814, sequence (Q99814 whole entry): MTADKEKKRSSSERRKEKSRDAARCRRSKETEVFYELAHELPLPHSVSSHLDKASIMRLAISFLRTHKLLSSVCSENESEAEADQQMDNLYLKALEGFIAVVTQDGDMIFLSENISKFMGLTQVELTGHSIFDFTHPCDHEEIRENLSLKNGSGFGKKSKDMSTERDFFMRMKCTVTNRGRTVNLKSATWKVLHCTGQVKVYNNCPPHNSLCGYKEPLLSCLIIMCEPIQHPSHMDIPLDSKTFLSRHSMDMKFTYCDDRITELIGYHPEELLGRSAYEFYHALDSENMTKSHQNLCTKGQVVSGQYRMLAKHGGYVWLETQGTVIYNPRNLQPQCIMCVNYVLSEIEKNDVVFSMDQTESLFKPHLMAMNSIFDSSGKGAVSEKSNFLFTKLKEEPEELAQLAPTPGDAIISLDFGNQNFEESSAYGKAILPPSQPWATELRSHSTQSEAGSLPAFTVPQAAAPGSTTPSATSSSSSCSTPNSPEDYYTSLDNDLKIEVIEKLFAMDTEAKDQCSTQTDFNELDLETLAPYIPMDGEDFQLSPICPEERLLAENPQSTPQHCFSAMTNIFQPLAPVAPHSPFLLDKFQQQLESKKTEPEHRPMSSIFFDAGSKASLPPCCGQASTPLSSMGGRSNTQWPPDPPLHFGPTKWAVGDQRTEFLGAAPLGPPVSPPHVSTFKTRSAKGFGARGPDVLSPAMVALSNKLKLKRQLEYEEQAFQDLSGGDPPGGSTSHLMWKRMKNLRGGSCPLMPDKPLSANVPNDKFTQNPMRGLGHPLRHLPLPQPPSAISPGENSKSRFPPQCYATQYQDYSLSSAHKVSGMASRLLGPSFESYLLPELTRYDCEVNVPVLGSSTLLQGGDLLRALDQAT

## mouse Tet1 (wild type, whole) (enzyme)
  PHD2 bound to HIF-2α with Tet1 co-expressed, fold of without Tet1: 0.47 fold
  pVHL bound to HIF-2α with Tet1 over-expressed, fold of without Tet1: 0.7 fold
